Blank lines part the entries; values can stand above or below the binder they belong to.
Assays:
Test in all cases: holdup assay
Design in all cases: key: below the threshold = too weak to quantify, mostly under pKd 3.1 to 4
Settings in all cases: plain residues with an end cap or a label only (N-terminal biotin on a linker: ado-ado)
DFNB31_3, Q9P202 = biological target: T1, DFNB31_3, Q9P202
T1 sequence (Q9P202 811-907, limits assumed, looked up): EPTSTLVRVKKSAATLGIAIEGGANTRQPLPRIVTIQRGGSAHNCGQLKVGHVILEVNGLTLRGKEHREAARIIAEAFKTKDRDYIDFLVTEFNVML

DLG2_2, Q15700 = biological target: DLG2_2, Q15700
Chain of DLG2_2, Q15700 (Q15700 189-283): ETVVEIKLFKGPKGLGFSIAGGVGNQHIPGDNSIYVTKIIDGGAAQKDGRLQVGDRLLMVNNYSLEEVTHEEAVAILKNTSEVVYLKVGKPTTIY

DLG4_1, P78352 = biological target: DLG4_1, P78352
Chain of DLG4_1, P78352 (P78352 62-152): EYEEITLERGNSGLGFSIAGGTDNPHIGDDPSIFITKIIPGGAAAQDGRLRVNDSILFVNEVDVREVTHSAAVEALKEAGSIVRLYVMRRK

DLG4_2, P78352 = biological target: DLG4_2, P78352
Chain of DLG4_2, P78352 (P78352 155-259): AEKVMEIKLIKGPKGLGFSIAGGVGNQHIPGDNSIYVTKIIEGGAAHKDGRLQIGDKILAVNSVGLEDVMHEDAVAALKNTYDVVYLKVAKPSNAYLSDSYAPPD

DLG5_1, Q8TDM6 = biological target: DLG5_1, Q8TDM6
Chain of DLG5_1, Q8TDM6 (Q8TDM6 617-713): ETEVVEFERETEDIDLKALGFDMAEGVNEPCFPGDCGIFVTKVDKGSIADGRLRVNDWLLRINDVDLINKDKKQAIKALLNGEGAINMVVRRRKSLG

FRMPD2_3, Q68DX3 = biological target: FRMPD2_3, Q68DX3
Chain of FRMPD2_3, Q68DX3 (Q68DX3 1073-1166): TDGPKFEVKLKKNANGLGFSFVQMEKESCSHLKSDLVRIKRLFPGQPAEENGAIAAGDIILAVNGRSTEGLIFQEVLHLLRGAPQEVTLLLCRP

GORASP1, Q9BQQ3 = biological target: GORASP1, Q9BQQ3
Chain of GORASP1, Q9BQQ3 (Q9BQQ3 1-208): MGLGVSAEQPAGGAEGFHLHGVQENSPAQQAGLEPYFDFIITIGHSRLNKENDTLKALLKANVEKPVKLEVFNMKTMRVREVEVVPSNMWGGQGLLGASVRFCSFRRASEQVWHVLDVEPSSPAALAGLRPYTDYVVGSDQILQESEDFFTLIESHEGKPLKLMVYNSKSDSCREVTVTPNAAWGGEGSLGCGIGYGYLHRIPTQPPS

GRID2IP_1, A4D2P6 = biological target: GRID2IP_1, A4D2P6
Chain of GRID2IP_1, A4D2P6 (A4D2P6 1-87): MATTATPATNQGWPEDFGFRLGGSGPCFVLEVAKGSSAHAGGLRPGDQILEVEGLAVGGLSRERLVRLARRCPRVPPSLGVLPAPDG

GRIP1_5, Q9Y3R0 = biological target: T2, GRIP1_5, Q9Y3R0
T2 sequence (Q9Y3R0 568-668, limits assumed, looked up): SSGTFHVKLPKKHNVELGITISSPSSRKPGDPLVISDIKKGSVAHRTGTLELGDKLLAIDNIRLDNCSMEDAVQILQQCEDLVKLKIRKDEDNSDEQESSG

IL16_1, Q14005 = biological target: IL16_1, Q14005
Chain of IL16_1, Q14005 (Q14005 210-306): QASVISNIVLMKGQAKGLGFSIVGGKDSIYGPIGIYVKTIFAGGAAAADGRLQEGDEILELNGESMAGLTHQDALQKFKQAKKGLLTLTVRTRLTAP

Inadl_6, Q8NI35 = biological target: Inadl_6, Q8NI35
Chain of Inadl_6, Q8NI35 (Q8NI35 1058-1167): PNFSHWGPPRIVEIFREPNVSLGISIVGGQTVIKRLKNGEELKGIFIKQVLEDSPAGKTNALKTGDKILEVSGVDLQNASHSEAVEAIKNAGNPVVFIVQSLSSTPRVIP

Inadl_8, Q8NI35 = biological target: Inadl_8, Q8NI35
Chain of Inadl_8, Q8NI35 (Q8NI35 1425-1530): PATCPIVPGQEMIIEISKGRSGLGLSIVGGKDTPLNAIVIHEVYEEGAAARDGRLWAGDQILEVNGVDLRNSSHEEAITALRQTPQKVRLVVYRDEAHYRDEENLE

LNX2_2, Q8N448 = biological target: T3, LNX2_2, Q8N448
T3 sequence (Q8N448 334-432, limits assumed, looked up): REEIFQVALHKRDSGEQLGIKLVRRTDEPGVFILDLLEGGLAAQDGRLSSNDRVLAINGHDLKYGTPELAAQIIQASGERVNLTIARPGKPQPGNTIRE

MAGI2_2, Q86UL8 = biological target: MAGI2_2, Q86UL8
Chain of MAGI2_2, Q86UL8 (Q86UL8 410-522): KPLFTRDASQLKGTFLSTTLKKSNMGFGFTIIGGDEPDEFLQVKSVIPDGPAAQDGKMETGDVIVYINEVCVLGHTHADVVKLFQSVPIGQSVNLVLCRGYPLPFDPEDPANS

MAGI2_6, Q86UL8 = biological target: MAGI2_6, Q86UL8
Chain of MAGI2_6, Q86UL8 (Q86UL8 1141-1229): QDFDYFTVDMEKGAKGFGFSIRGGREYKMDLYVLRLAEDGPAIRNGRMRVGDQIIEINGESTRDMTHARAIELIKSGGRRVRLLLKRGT

MPP2, Q14168 = biological target: T4, MPP2, Q14168
T4 sequence (Q14168 180-250, limits assumed, looked up): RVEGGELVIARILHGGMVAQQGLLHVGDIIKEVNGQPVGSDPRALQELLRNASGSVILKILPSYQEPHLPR

NHERF3_1, Q5T2W1 = biological target: T5, NHERF3_1, Q5T2W1
T5 sequence (Q5T2W1 4-100, limits assumed, looked up): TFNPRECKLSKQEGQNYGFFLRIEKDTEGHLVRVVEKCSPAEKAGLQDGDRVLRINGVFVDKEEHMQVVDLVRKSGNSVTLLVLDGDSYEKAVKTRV

NHERF3_3, Q5T2W1 = biological target: T6, NHERF3_3, Q5T2W1
T6 sequence (Q5T2W1 238-333, limits assumed, looked up): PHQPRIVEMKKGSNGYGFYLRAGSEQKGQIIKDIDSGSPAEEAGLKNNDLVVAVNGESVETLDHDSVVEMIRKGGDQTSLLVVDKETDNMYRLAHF

NHERF4_1, Q86UT5-2 = biological target: NHERF4_1, Q86UT5-2
Chain of NHERF4_1, Q86UT5-2 (Q86UT5 other isoform, or with tags, fused parts or gaps): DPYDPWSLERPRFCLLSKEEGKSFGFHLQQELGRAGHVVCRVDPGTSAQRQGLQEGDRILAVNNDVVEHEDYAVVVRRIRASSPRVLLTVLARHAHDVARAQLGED

NOS1, P29475 = biological target: NOS1, P29475
Chain of NOS1, P29475 (P29475 9-101): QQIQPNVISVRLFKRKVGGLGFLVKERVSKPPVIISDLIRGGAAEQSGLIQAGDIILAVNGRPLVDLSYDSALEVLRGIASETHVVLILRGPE

PCLO, Q9Y6V0 = biological target: T7, PCLO, Q9Y6V0
T7 sequence (Q9Y6V0 4491-4600, limits assumed, looked up): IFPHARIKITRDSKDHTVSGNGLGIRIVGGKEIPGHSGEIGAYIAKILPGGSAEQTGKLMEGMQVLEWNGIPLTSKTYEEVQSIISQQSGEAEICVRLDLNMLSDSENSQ

PICK1, Q9NRD5 = biological target: PICK1, Q9NRD5
Chain of PICK1, Q9NRD5 (Q9NRD5 17-115): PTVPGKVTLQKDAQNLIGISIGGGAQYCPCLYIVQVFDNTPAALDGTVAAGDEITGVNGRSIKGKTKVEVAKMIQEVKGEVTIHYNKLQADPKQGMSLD

PTPN3, P26045 = biological target: PTPN3, P26045
Chain of PTPN3, P26045 (P26045 505-587): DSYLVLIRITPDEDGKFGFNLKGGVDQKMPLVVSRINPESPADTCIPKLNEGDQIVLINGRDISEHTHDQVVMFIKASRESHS

SHANK1, Q9Y566 = biological target: T8, SHANK1, Q9Y566
T8 sequence (Q9Y566 658-767, limits assumed, looked up): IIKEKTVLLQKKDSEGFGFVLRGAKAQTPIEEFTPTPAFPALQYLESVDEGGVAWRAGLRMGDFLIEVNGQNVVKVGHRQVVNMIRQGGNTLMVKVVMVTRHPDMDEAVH

TIAM2, Q8IVF5 = biological target: T9, TIAM2, Q8IVF5
T9 sequence (Q8IVF5 885-986, limits assumed, looked up): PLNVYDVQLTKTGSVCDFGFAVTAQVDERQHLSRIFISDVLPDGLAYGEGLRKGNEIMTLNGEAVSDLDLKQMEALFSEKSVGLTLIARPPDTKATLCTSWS

TJP1_3, Q07157 = biological target: TJP1_3, Q07157
Chain of TJP1_3, Q07157 (Q07157 416-512): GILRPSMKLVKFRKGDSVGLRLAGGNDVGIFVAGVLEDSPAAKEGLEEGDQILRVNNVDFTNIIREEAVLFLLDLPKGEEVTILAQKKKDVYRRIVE

TJP3_3, O95049 = biological target: T10, TJP3_3, O95049
T10 sequence (O95049 375-456, limits assumed, looked up): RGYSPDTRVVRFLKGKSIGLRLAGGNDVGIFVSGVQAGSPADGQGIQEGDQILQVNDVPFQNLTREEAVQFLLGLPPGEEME

pKd (DFNB31_3, Q9P202): 3.78
pKd (DLG2_2, Q15700): below the threshold
pKd (DLG4_1, P78352): below the threshold
pKd (DLG4_2, P78352): below the threshold
pKd (DLG5_1, Q8TDM6): below the threshold
pKd (FRMPD2_3, Q68DX3): below the threshold
pKd (GORASP1, Q9BQQ3): below the threshold
pKd (GRID2IP_1, A4D2P6): below the threshold
pKd (GRIP1_5, Q9Y3R0): below the threshold
pKd (IL16_1, Q14005): below the threshold
pKd (Inadl_6, Q8NI35): below the threshold
pKd (Inadl_8, Q8NI35): below the threshold
pKd (LNX2_2, Q8N448): below the threshold
pKd (MAGI2_2, Q86UL8): below the threshold
pKd (MAGI2_6, Q86UL8): 4
pKd (MPP2, Q14168): below the threshold
pKd (NHERF3_1, Q5T2W1): 5.03
pKd (NHERF3_3, Q5T2W1): below the threshold
pKd (NHERF4_1, Q86UT5-2): 4.35
pKd (NOS1, P29475): below the threshold
pKd (PCLO, Q9Y6V0): below the threshold
pKd (PICK1, Q9NRD5): below the threshold
pKd (PTPN3, P26045): below the threshold
pKd (SHANK1, Q9Y566): 5.81
pKd (TIAM2, Q8IVF5): below the threshold
pKd (TJP1_3, Q07157): below the threshold
pKd (TJP3_3, O95049): below the threshold
B1: SLC5A12, Q1EHB4 (peptide)
chain: NNMAFETTHF

pKd (DFNB31_3, Q9P202): below the threshold
pKd (DLG2_2, Q15700): below the threshold
pKd (DLG4_1, P78352): 3.55
pKd (DLG4_2, P78352): below the threshold
pKd (DLG5_1, Q8TDM6): below the threshold
pKd (FRMPD2_3, Q68DX3): below the threshold
pKd (GORASP1, Q9BQQ3): below the threshold
pKd (GRID2IP_1, A4D2P6): below the threshold
pKd (GRIP1_5, Q9Y3R0): below the threshold
pKd (IL16_1, Q14005): below the threshold
pKd (Inadl_6, Q8NI35): below the threshold
pKd (Inadl_8, Q8NI35): below the threshold
pKd (LNX2_2, Q8N448): below the threshold
pKd (MAGI2_2, Q86UL8): below the threshold
pKd (MAGI2_6, Q86UL8): below the threshold
pKd (MPP2, Q14168): below the threshold
pKd (NHERF3_1, Q5T2W1): 4.39
pKd (NHERF3_3, Q5T2W1): below the threshold
pKd (NHERF4_1, Q86UT5-2): 3.94
pKd (NOS1, P29475): below the threshold
pKd (PCLO, Q9Y6V0): below the threshold
pKd (PICK1, Q9NRD5): below the threshold
pKd (PTPN3, P26045): below the threshold
pKd (SHANK1, Q9Y566): 4.54
pKd (TIAM2, Q8IVF5): below the threshold
pKd (TJP1_3, Q07157): below the threshold
pKd (TJP3_3, O95049): below the threshold
B4: SLC22A3, O75751 (peptide)
chain: KKTPVSRSHL

Further lines, the binder ahead of its results:

B2: RCN2, Q14257 (peptide)
chain: HDDYFYHDEL
pKd (DFNB31_3, Q9P202): below the threshold
pKd (DLG2_2, Q15700): below the threshold
pKd (DLG4_1, P78352): 3.54
pKd (DLG4_2, P78352): below the threshold
pKd (DLG5_1, Q8TDM6): below the threshold
pKd (FRMPD2_3, Q68DX3): below the threshold
pKd (GORASP1, Q9BQQ3): below the threshold
pKd (GRID2IP_1, A4D2P6): below the threshold
pKd (GRIP1_5, Q9Y3R0): below the threshold
pKd (IL16_1, Q14005): below the threshold
pKd (Inadl_6, Q8NI35): below the threshold
pKd (Inadl_8, Q8NI35): below the threshold
pKd (LNX2_2, Q8N448): below the threshold
pKd (MAGI2_2, Q86UL8): below the threshold
pKd (MAGI2_6, Q86UL8): 3.9
pKd (MPP2, Q14168): below the threshold
pKd (NHERF3_1, Q5T2W1): 4.34
pKd (NHERF3_3, Q5T2W1): below the threshold
pKd (NHERF4_1, Q86UT5-2): 4.1
pKd (NOS1, P29475): below the threshold
pKd (PCLO, Q9Y6V0): below the threshold
pKd (PICK1, Q9NRD5): below the threshold
pKd (PTPN3, P26045): below the threshold
pKd (SHANK1, Q9Y566): below the threshold
pKd (TIAM2, Q8IVF5): below the threshold
pKd (TJP1_3, Q07157): below the threshold
pKd (TJP3_3, O95049): below the threshold

B3: KCNJ9, Q92806 (peptide)
chain: LPPPESESKV
pKd (DFNB31_3, Q9P202): below the threshold
pKd (DLG2_2, Q15700): below the threshold
pKd (DLG4_1, P78352): below the threshold
pKd (DLG4_2, P78352): 3.67
pKd (DLG5_1, Q8TDM6): below the threshold
pKd (FRMPD2_3, Q68DX3): below the threshold
pKd (GORASP1, Q9BQQ3): below the threshold
pKd (GRID2IP_1, A4D2P6): below the threshold
pKd (GRIP1_5, Q9Y3R0): below the threshold
pKd (IL16_1, Q14005): 4.11
pKd (Inadl_6, Q8NI35): below the threshold
pKd (Inadl_8, Q8NI35): below the threshold
pKd (LNX2_2, Q8N448): 3.52
pKd (MAGI2_2, Q86UL8): below the threshold
pKd (MAGI2_6, Q86UL8): 3.48
pKd (MPP2, Q14168): below the threshold
pKd (NHERF3_1, Q5T2W1): 4.15
pKd (NHERF3_3, Q5T2W1): below the threshold
pKd (NHERF4_1, Q86UT5-2): below the threshold
pKd (NOS1, P29475): below the threshold
pKd (PCLO, Q9Y6V0): below the threshold
pKd (PICK1, Q9NRD5): 4
pKd (PTPN3, P26045): 4.4
pKd (SHANK1, Q9Y566): below the threshold
pKd (TIAM2, Q8IVF5): 4.05
pKd (TJP1_3, Q07157): below the threshold
pKd (TJP3_3, O95049): below the threshold

B5: PALLS, Q8WX93;Q8WX93-1 (peptide)
chain: NTALVESEDL
pKd (DFNB31_3, Q9P202): below the threshold
pKd (DLG2_2, Q15700): below the threshold
pKd (DLG4_1, P78352): below the threshold
pKd (DLG4_2, P78352): below the threshold
pKd (DLG5_1, Q8TDM6): below the threshold
pKd (FRMPD2_3, Q68DX3): below the threshold
pKd (GORASP1, Q9BQQ3): below the threshold
pKd (GRID2IP_1, A4D2P6): below the threshold
pKd (GRIP1_5, Q9Y3R0): below the threshold
pKd (IL16_1, Q14005): below the threshold
pKd (Inadl_6, Q8NI35): below the threshold
pKd (Inadl_8, Q8NI35): below the threshold
pKd (LNX2_2, Q8N448): below the threshold
pKd (MAGI2_2, Q86UL8): below the threshold
pKd (MAGI2_6, Q86UL8): 4.01
pKd (MPP2, Q14168): below the threshold
pKd (NHERF3_1, Q5T2W1): below the threshold
pKd (NHERF3_3, Q5T2W1): below the threshold
pKd (NHERF4_1, Q86UT5-2): below the threshold
pKd (NOS1, P29475): below the threshold
pKd (PCLO, Q9Y6V0): below the threshold
pKd (PICK1, Q9NRD5): below the threshold
pKd (PTPN3, P26045): 4.33
pKd (SHANK1, Q9Y566): below the threshold
pKd (TIAM2, Q8IVF5): below the threshold
pKd (TJP1_3, Q07157): below the threshold
pKd (TJP3_3, O95049): below the threshold
